# Source: patent US20130052176, “APTAMER FOR NGF AND USE THEREOF” (SHIONOGI & CO., LTD, published 2013)
# Tests used:
# [1] = target: T1, NGF (nerve growth factor) (human, UniProt P01138 P01138:122-241); assay: cell_activity; neurite outgrowth, NGF 1.1 nM; TF-1 IC50 1.2 nM; details: tags: human NGF; chain copies: 2
# Experimental: (§1) The neurite outgrowth inhibitory activity of the aptamer obtained in Example 1 was evaluated by using Neuroscreen-1 cell, which is a subclone of PC-12 cells.
# (§2) The cells (2500 cells per well) were cultured for one day in an RPMI-1640 medium containing 2.5% horse serum and 1.25% fetal bovine serum in a 96 well flat-bottom plate coated with collagen type IV. […] Two days later, the cytoplasm and nuclei were stained using Cellomics Neurite Outgrowth Kit (manufactured by Thermo Scientific), and neurite length per cell was measured by Cellomics ArrayScan VTI (manufactured by Thermo Scientific). With the neurite length per cell obtained by the addition of NGF alone as inhibitory activity 0%, and that of the cell obtained by NGF free culture for 2 days as inhibitory activity 100%, the inhibitory activity of the aptamer was calculated from the neurite length per cell obtained by culturing with the addition of NGF and the aptamer in mixture. When the inhibitory activity was 0% or below, ‘0%’ is indicated.
# [2] = target: T1, NGF (nerve growth factor); assay: cell_activity; neurite outgrowth, NGF 1.1 nM; TF-1 IC50 4.2 nM; details: tags: human NGF; chain copies: 2
# Experimental: as §1, §2
# [3] = target: T1, NGF (nerve growth factor); assay: cell_activity; neurite outgrowth, NGF 1.1 nM; TF-1 IC50 1.5 nM; details: tags: human NGF; chain copies: 2
# Experimental: as §1, §2
# [4] = target: T1, NGF (nerve growth factor); assay: cell_activity; neurite outgrowth, NGF 1.1 nM; TF-1 IC50 1.7 nM; details: tags: human NGF; chain copies: 2
# Experimental: as §1, §2
# [5] = target: T1, NGF (nerve growth factor); assay: cell_activity; neurite outgrowth, NGF 0.38 nM; SPR binding; TF-1 IC50 2.8 nM; details: tags: amine-coupled to CM5 chip in SPR; soluble in cell assays; chain copies: 2
# Experimental: as §1, §2
# [6] = target: T1, NGF (nerve growth factor); assay: cell_activity; neurite outgrowth, NGF 1.1 nM; TF-1 IC50 <1.0 nM; details: tags: human NGF; chain copies: 2
# Experimental: as §1, §2
# [7] = target: T1, NGF (nerve growth factor); assay: cell_activity; neurite outgrowth, NGF 0.38 nM; TF-1 IC50 0.176 nM; details: tags: human NGF; chain copies: 2
# Experimental: as §1, §2
# [8] = target: T1, NGF (nerve growth factor); assay: cell_activity; neurite outgrowth, NGF 0.38 nM; TF-1 IC50 0.146 nM; details: tags: human NGF; chain copies: 2
# Experimental: as §1, §2
# [9] = target: T1, NGF (nerve growth factor); assay: cell_activity; neurite outgrowth, NGF 0.38 nM; TF-1 IC50 >0.3 nM; details: tags: human NGF; chain copies: 2
# Experimental: as §1, §2
# [10] = target: T1, NGF (nerve growth factor); assay: cell_activity; neurite outgrowth, NGF 0.38 nM; TF-1 IC50 0.100 nM; details: tags: human NGF; chain copies: 2
# Experimental: as §1, §2
# [11] = target: T1, NGF (nerve growth factor); assay: cell_activity; neurite outgrowth, NGF 0.38 nM; TF-1 IC50 0.107 nM; details: tags: human NGF; chain copies: 2
# Experimental: as §1, §2
# [12] = target: T1, NGF (nerve growth factor); assay: cell_activity; neurite outgrowth, NGF 0.38 nM; TF-1 IC50 0.164 nM; details: tags: human NGF; chain copies: 2
# Experimental: as §1, §2
# [13] = target: T1, NGF (nerve growth factor); assay: cell_activity; neurite outgrowth, NGF 0.38 nM; TF-1 IC50 0.130 nM; details: tags: human NGF; chain copies: 2
# Experimental: as §1, §2
# [14] = target: T1, NGF (nerve growth factor); assay: cell_activity; neurite outgrowth, NGF 0.38 nM; TF-1 IC50 0.055 nM; details: tags: human NGF; chain copies: 2
# Experimental: as §1, §2
# [15] = target: T1, NGF (nerve growth factor); assay: cell_activity; neurite outgrowth, NGF 0.38 nM; TF-1 IC50 0.165 nM; details: tags: human NGF; chain copies: 2
# Experimental: as §1, §2
# T1 sequence (P01138 122-241, one chain of several): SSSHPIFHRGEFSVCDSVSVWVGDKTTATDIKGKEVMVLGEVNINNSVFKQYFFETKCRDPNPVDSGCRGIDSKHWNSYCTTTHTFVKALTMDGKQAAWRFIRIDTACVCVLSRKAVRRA
binder,measurement,setting,value
"GGGAUAAAAAUAGAGTUUGATAAACACCUGUAUUAAAACCC (mixed, as ID 57 (5' cholesterol; 3' idT; dT16,dT21; 2'-F other pyrimidines and a37,a38; 2'-OMe purines except ribo a4,a7,g30) plus PS between 15 and 16) [aptamer ID 57(1)]",IC50,[1],< 3 nM
"GGGAUAAAAAUAGAGTUUGATAAACACCUGUAUUAAAACCC (mixed, as ID 57 (5' cholesterol; 3' idT; dT16,dT21; 2'-F other pyrimidines and a37,a38; 2'-OMe purines except ribo a4,a7,g30) plus PS between 20 and 21) [aptamer ID 57(4)]",IC50,[2],< 3 nM
"GGGAUAAAAAUAGAGTUUGATAAACACCUGUAUUAAAACCC (mixed, as ID 57 (5' cholesterol; 3' idT; dT16,dT21; 2'-F other pyrimidines and a37,a38; 2'-OMe purines except ribo a4,a7,g30) plus PS between 19 and 20) [aptamer ID 57(3)]",IC50,[3],< 3 nM
"GGGAUAAAAAUAGAGTUUGATAAACACCUGUAUUAAAACCC (mixed, as ID 57 (5' cholesterol; 3' idT; dT16,dT21; 2'-F other pyrimidines and a37,a38; 2'-OMe purines except ribo a4,a7,g30) plus PS between 21 and 22) [aptamer ID 57(5)]",IC50,[4],< 3 nM
"GGGAGACUCGCAGAGUUGAAAGAAACCCAAAUAGUGUGCGCAC (ssRNA, 2'-F at all pyrimidines) [aptamer ID 30]",IC50,[5],< 0.3 nM
"GGGAGACUCGCCAGAGUUGAAAGAAACCCAAAUAAGUGUGCGCAC (ssRNA, 2'-F all pyrimidines) [aptamer ID 26]",IC50,[6],< 1 nM
"GGGAGACUCGCCAGAGUUGAAAGAAACCCAAAUAAGUGUGCGCAC (ssRNA, as 26(19) (5' and 3' idT; 2'-F pyrimidines; 2'-OMe purines except ribo g3,g19,a20,a26) but c12 is 2'-OMe) [aptamer ID 26(33)]",IC50,[7],0.294 nM
"GGGAGACUCGCCAGAGUUGAAAGAAACCCAAAUAAGUGUGCGCAC (ssRNA, 5' and 3' idT; 2'-OMe purines except ribo g3,g19,a20,a26; 2'-OMe c7,c9,c11,c12,u17,u33,c45; other pyrimidines 2'-F) [aptamer ID 26(45)]",IC50,[8],0.238 nM
"GGGAGACUCGCCAGAGUUGAAAGAAACCCAAAUAAGUGUGCGCAC (ssRNA, as 26(19) (5' and 3' idT; 2'-F pyrimidines; 2'-OMe purines except ribo g3,g19,a20,a26) but c7 is 2'-OMe; PS between a26 and c27) [aptamer ID 26(40)]",IC50,[9],0.247 nM
"GGGAGACUCGCCAGAGUUGAAAGAAACCCAAAUAAGUGUGCGCAC (ssRNA, 5' and 3' idT; 2'-OMe purines except ribo g3,g19,a20,a26; 2'-OMe c7,u8,c11,c12,u17,u33,c45; other pyrimidines 2'-F) [aptamer ID 26(46)]",IC50,[10],0.097 nM
"GGGAGACUCGCCAGAGUUGAAAGAAACCCAAAUAAGUGUGCGCAC (mixed, 5' and 3' idT; 2'-OMe purines except ribo g3,g19,a20,a26; 2'-F c27,c28,u39,c41; dC29,dC43; other pyrimidines 2'-OMe) [aptamer ID 26(58)]",IC50,[11],0.143 nM
"GGGAGACUCGCCAGAGUUGAAAGAAACCCAAAUAAGUGUGCGCAC (ssRNA, as 26(19) (5' and 3' idT; 2'-F pyrimidines; 2'-OMe purines except ribo g3,g19,a20,a26) but c45 is 2'-OMe) [aptamer ID 26(35)]",IC50,[12],0.166 nM
"GGGAGACUCGCCAGAGUUGAAAGAAACCCAAAUAAGUGUGCGCAC (mixed, 5' and 3' idT; 2'-OMe purines except ribo g3,g19,a20,a26; 2'-F c27,c28,u39,c43; dC29,dC41; other pyrimidines 2'-OMe) [aptamer ID 26(57)]",IC50,[13],0.213 nM
"GGGAGACUCGCCAGAGUUGAAAGAAACCCAAAUAAGUGUGCGCAC (ssRNA, 5' and 3' idT; 2'-OMe purines except ribo g3,g19,a20 and 2'-F a26; 2'-F c27,c28,c29,u39,c41,c43; other pyrimidines 2'-OMe) [aptamer ID 26(60)]",IC50,[14],0.105 nM
"GGGAGACUCGCCAGAGUUGAAAGAAACCCAAAUAAGUGUGCGCAC (mixed, as 26(19) (5' and 3' idT; 2'-F pyrimidines; 2'-OMe purines except ribo g3,g19,a20,a26) but c45 is dC) [aptamer ID 26(30)]",IC50,[15],0.289 nM
